Literature values, collected in PMC4101496.

Target: Asp14 (UniProt position 14, FGAHADDVEIG)
Assay: kinetics
Details: WT enzyme under turnover; pH profiles of Zn2+-BshB and Co2+-BshB reported as identical

## N-acetylglucosamine-malate deacetylase (BshB) (Bacillus anthracis (per Table 1 accession; the review says BshB from both B. anthracis and B. cereus (BC1534) has been characterised and does not state which gave the pH profile))
  pKa: 8.5
